Test results as given in article PMC6332214, “A 7-Deazaadenosylaziridine Cofactor for Sequence-Specific Labeling of DNA by the DNA Cytosine-C5 Methyltransferase M.HhaI”.

Target: T1, M.HhaI (DNA cytosine-C5 methyltransferase) (Haemophilus haemolyticus, UniProt P05102 1-327)
T1 sequence: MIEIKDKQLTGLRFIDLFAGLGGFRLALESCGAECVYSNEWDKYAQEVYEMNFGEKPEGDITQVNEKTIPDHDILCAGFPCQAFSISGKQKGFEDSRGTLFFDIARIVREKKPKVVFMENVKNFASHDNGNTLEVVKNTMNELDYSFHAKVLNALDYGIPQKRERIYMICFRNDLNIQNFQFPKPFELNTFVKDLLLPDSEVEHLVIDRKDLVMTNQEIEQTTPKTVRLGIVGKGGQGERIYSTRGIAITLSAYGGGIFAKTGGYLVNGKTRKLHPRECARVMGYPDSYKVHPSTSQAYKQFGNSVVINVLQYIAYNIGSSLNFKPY
Assay: anion-exchange HPLC; complex of M.HhaI with coupling product; 80 uM cofactor 5, 10 uM duplex, 11 uM M.HhaI, 37 C 3 h; stable to chromatography, released at 65 C; 10 mM Tris-HCl pH 7.4, 50 mM NaCl, 0.05 mM EDTA, 2 mM beta-mercaptoethanol, 37 C; anion-exchange HPLC (Poros 10 HQ) in KCl gradient 0.2-1 M
Conditions: label: biotin (via cofactor 5); blunt

B1: duplex ODN I5·II (coupling product with aziridine cofactor 5) (dsDNA)
DNA 1: TGTCAGCGCATGA
DNA 2: TCATGCGCTGACA
modifications: target C (position 7 of strand I) alkylated with 7-deazaadenosylaziridine-biotin cofactor 5; 5-methyl-dC at position 6 of strand II
B1: binds.
